B1: Amphiphysin (Homo sapiens), P49418 (parent)
chain: MADIKTGIFAKNVQKRLNRAQEKVLQKLGKADETKDEQFEEYVQNFKRQEAEGTRLQRELRGYLAAIKGMQEASMKLTESLHEVYEPDWYGREDVKMVGEKCDVLWEDFHQKLVDGSLLTLDTYLGQFPDIKNRIAKRSRKLVDYDSARHHLEALQSSKRKDESRISKAEEEFQKAQKVFEEFNVDLQEELPSLWSRRVGFYVNTFKNVSSLEAKFHKEIAVLCHKLYEVMTKLGDQHADKAFTIQGAPSDSGPLRIAKTPSPPEEPSPLPSPTASPNHTLAPASPAPARPRSPSQTRKGPPVPPLPKVTPTKELQQENIISFFEDNFVPEISVTTPSQNEVPEVKKEETLLDLDFDPFKPEVTPAGSAGVTHSPMSQTLPWDLWTTSTDLVQPASGGSFNGFTQPQDTSLFTMQTDQSMICNLAESEQAPPTEPKAEEPLAAVTPAVGLDLGMDTRAEEPVEEAVIIPGADADAAVGTLVSAAEGAPGEEAEAEKATVPAGEGVSLEEAKIGTETTEGAESAQPEAEELEATVPQEKVIPSVVIEPASNHEEEGENEITIGAEPKETTEDAAPPGPTSETPELATEQKPIQDPQPTPSAPAMGAADQLASAREASQELPPGFLYKVETLHDFEAANSDELTLQRGDVVLVVPSDSEADQDAGWLVGVKESDWLQYRDLATYKGLFPENFTRRLD
partner: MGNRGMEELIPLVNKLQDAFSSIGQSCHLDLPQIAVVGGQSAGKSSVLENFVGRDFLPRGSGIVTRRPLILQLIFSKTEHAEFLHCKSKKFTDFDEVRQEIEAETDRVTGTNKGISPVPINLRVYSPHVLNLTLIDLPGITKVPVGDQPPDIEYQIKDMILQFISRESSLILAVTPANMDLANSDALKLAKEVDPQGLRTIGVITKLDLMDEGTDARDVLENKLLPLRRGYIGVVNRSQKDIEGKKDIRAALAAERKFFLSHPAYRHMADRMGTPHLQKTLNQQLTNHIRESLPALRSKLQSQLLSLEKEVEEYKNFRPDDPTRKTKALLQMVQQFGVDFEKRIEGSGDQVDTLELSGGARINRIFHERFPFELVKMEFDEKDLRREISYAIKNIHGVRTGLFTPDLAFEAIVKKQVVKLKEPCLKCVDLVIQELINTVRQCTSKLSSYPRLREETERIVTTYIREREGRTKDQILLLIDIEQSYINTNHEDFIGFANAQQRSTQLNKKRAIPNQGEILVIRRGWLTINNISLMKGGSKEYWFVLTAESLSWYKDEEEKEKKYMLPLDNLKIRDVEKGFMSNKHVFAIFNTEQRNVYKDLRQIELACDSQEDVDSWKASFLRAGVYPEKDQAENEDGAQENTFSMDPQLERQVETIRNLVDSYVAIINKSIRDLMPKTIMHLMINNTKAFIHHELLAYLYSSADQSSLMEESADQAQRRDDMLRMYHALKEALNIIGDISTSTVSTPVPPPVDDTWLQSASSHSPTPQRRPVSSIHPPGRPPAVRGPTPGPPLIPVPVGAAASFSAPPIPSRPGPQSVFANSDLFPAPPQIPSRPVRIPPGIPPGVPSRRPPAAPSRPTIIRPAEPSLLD

Variants of: B1
Conditions: with dyn2_human DNM2, P50570

Row | effect of a mutation on the interaction | Variant
1 | disrupting interaction | G684R
2 | disrupting interaction | P687L
